Like-named read-outs stand apart in the source and are kept apart here.
What was measured:
Type in all cases: biochemical, Escherichia coli
[1] = substrate: O=CC(O)COP(=O)(O)O; test: phosphate release kinetics, Michaelis-Menten (Km); conditions: Mg2+
[2] = substrate: O=P(O)(O)OCC(O)CO; test: phosphate release kinetics, Michaelis-Menten (Km); conditions: Mg2+
[3] = substrate: CCCCCCCC/C=C\CCCCCCCC(=O)OC[C@@H](O)COP(=O)(O)O; test: phosphate release kinetics, surface dilution model (Km)

B1: PgpA (Escherichia coli K-12) (protein)
chain: MTILPRHKDVAKSRLKMSNPWHLLAVGFGSGLSPIVPGTMGSLAAIPFWYLMTFLPWQLYSLVVMLGICIGVYLCHQTAKDMGVHDHGSIVWDEFIGMWITLMALPTNDWQWVAAGFVIFRILDMWKPWPIRWFDRNVHGGMGIMIDDIVAGVISAGILYFIGHHWPLGILS
notes: N-terminal His-tagged PgpA purified in DDM
Km [1]: 765 µM
Km [2]: 327 µM
Km ([3]; Mg2+): 83.8 µM

B2: PgpB (Escherichia coli K-12) (protein)
chain: RSIARRTAVGAALLLVMPVAVWISGWRWQPGEQSWLLKAAFWVTETVTQPWGVITHLILFGWFLWCLRFRIKAAFVLFAILAAAILVGQGVKSWIKDKVQEPRPFVIWLEKTHHIPVDEFYTLKRAERGNLVKEQLAEEKNIPQYLRSHWQKETGFAFPSGHTMFAASWALLAVGLLWPRRRTLTIAILLVWATGVMGSRLLLGMHWPRDLVVATLISWALVAVATWLAQRICGPLTPPAEENREIAQREQES
notes: N-terminal His-tagged PgpB purified in DDM
Km [3]: 179.6 µM

B3: PgpC (Escherichia coli K-12) (protein)
chain: MATHERRVVFFDLDGTLHQQDMFGSFLRYLLRRQPLNALLVLPLLPIIAIALLIKGRAARWPMSLLLWGCTFGHSEARLQTLQADFVRWFRDNVTAFPLVQERLTTYLLSSDADIWLITGSPQPLVEAVYFDTPWLPRVNLIASQIQRGYGGWVLTMRCLGHEKVAQLERKIGTPLRLYSGYSDSNQDNPLLYFCQHRWRVTPRGELQQLE
notes: N-terminal His-tagged PgpC purified in DDM
Km ([3]; Mg2+): 190.2 µM
